According to the supplement of paper PMC10567573:

B1: CPXM2 (parent)
chain: EILGCPLPDPNNYYHRRNEMTTTD

Variants of: B1
Experiment: protein stability index of a GFP-peptide fusion (GPS, HEK-293T) (PSI 1-6); higher = more stable
Settings: c terminus: a fixed tail appended
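Also: lentivirally expressed fusions sorted by FACS into six bins by GFP to DsRed ratio, PSI derived from sequencing read proportions per bin multiplied by bin number.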

Row | Variant | protein stability index
1 | EILGCPLPDPLNYYHRRNEMTTTD [N11L] | 2.98
2 | EILGCPLPDPINYYHRRNEMTTTD [N11I] | 2.48
3 | EILGCPLPDPKNYYHRRNEMTTTD [N11K] | 3.47
4 | EILGCPLPDPANYYHRRNEMTTTD [N11A] | 3.43
5 | EILGCPLPDPPNYYHRRNEMTTTD [N11P] | 3.84
6 | EILGCPLPDPTNYYHRRNEMTTTD [N11T] | 3.48
7 | EILGCPLPDPFNYYHRRNEMTTTD [N11F] | 2.96
8 | EILGCPLPDPHNYYHRRNEMTTTD [N11H] | 3.19
9 | EILGCPLPDPWNYYHRRNEMTTTD [N11W] | 2.29
10 | EILGCPLPDPMNYYHRRNEMTTTD [N11M] | 3.21
11 | EILGCPLPDPDNYYHRRNEMTTTD [N11D] | 3.57
12 | EILGCPLPDPQNYYHRRNEMTTTD [N11Q] | 3.73
13 | EILGCPLPDPENYYHRRNEMTTTD [N11E] | 4.07
14 | EILGCPLPDPNNYRHRRNEMTTTD [Y14R] | 3.92
15 | EILGCPLPDPNNYWHRRNEMTTTD [Y14W] | 3.75
16 | EILGCPLPDPNNYNHRRNEMTTTD [Y14N] | 4.17
17 | EILGCPLPDPNNYVHRRNEMTTTD [Y14V] | 3.81
18 | EILGCPLPDPNNYLHRRNEMTTTD [Y14L] | 3.68
19 | EILGCPLPDPNNYPHRRNEMTTTD [Y14P] | 4.41
20 | EILGCPLPDPNNYIHRRNEMTTTD [Y14I] | 3.46
21 | EILGCPLPDPNNYAHRRNEMTTTD [Y14A] | 4.18
22 | EILGCPLPDPNNYKHRRNEMTTTD [Y14K] | 3.88
23 | EILGCPLPDPNNYMHRRNEMTTTD [Y14M] | 3.57
24 | EILGCPLPDPNNYFHRRNEMTTTD [Y14F] | 3.69

Row | Variant | protein stability index
25 | EILGCPLPDPNNYDHRRNEMTTTD [Y14D] | 4.31
26 | EILGCPLPDPNNYTHRRNEMTTTD [Y14T] | 4.29
27 | EILGCPLPDPNNYQHRRNEMTTTD [Y14Q] | 3.96
28 | EILGCPLPDPNNYSHRRNEMTTTD [Y14S] | 4.38
29 | EILGCPLPDPNNYCHRRNEMTTTD [Y14C] | 4.04
30 | EILGCPLPDPNNYEHRRNEMTTTD [Y14E] | 4.59
31 | EILGCPLPDPNNYHHRRNEMTTTD [Y14H] | 3.84
32 | EILGCPLPDPNNYGHRRNEMTTTD [Y14G] | 4.13
33 | EILGCPLPGPNNYYHRRNEMTTTD [D9G] | 3.03
34 | EILGCPLPFPNNYYHRRNEMTTTD [D9F] | 2.68
35 | EILGCPLPEPNNYYHRRNEMTTTD [D9E] | 3.15
36 | EILGCPLPTPNNYYHRRNEMTTTD [D9T] | 3.25
37 | EILGCPLPWPNNYYHRRNEMTTTD [D9W] | 2.44
38 | EILGCPLPKPNNYYHRRNEMTTTD [D9K] | 2.85
39 | EILGCPLPNPNNYYHRRNEMTTTD [D9N] | 3.18
40 | EILGCPLPYPNNYYHRRNEMTTTD [D9Y] | 2.75
41 | EILGCPLPAPNNYYHRRNEMTTTD [D9A] | 3.07
42 | EILGCPLPSPNNYYHRRNEMTTTD [D9S] | 3.24
43 | EILGCPLPMPNNYYHRRNEMTTTD [D9M] | 2.92
44 | EILGCPLPHPNNYYHRRNEMTTTD [D9H] | 2.39
45 | EILGCPLPRPNNYYHRRNEMTTTD [D9R] | 3.34
46 | EILGCPLPIPNNYYHRRNEMTTTD [D9I] | 2.59
47 | EILGCPLPCPNNYYHRRNEMTTTD [D9C] | 3.17
48 | EILGCPLPLPNNYYHRRNEMTTTD [D9L] | 3.05

Row | Variant | protein stability index
49 | EILGCPLPVPNNYYHRRNEMTTTD [D9V] | 3.04
50 | EILGCPLPPPNNYYHRRNEMTTTD [D9P] | 3.26
51 | EILGCPLPQPNNYYHRRNEMTTTD [D9Q] | 3.35
52 | EILGCPLEDPNNYYHRRNEMTTTD [P8E] | 3.88
53 | EILGCPLQDPNNYYHRRNEMTTTD [P8Q] | 3.56
54 | EILGCPLSDPNNYYHRRNEMTTTD [P8S] | 3.17
55 | EILGCPLFDPNNYYHRRNEMTTTD [P8F] | 2.61
56 | EILGCPLTDPNNYYHRRNEMTTTD [P8T] | 3.12
57 | EILGCPLGDPNNYYHRRNEMTTTD [P8G] | 3.8
58 | EILGCPLWDPNNYYHRRNEMTTTD [P8W] | 2.62
59 | EILGCPLHDPNNYYHRRNEMTTTD [P8H] | 2.82
60 | EILGCPLRDPNNYYHRRNEMTTTD [P8R] | 3.56
61 | EILGCPLIDPNNYYHRRNEMTTTD [P8I] | 3.14
62 | EILGCPLNDPNNYYHRRNEMTTTD [P8N] | 3.31
63 | EILGCPLADPNNYYHRRNEMTTTD [P8A] | 2.9
64 | EILGCPLMDPNNYYHRRNEMTTTD [P8M] | 2.47
65 | EILGCPLYDPNNYYHRRNEMTTTD [P8Y] | 2.71
66 | EILGCPLLDPNNYYHRRNEMTTTD [P8L] | 2.66
67 | EILGCPLKDPNNYYHRRNEMTTTD [P8K] | 3.58
68 | EILGCPLVDPNNYYHRRNEMTTTD [P8V] | 3.01
69 | EILGCPLCDPNNYYHRRNEMTTTD [P8C] | 2.4
70 | EILGCPLDDPNNYYHRRNEMTTTD [P8D] | 4.22
71 | EILGCPLPDPNNYYERRNEMTTTD [H15E] | 3.62
72 | EILGCPLPDPNNYYFRRNEMTTTD [H15F] | 3.33

Row | Variant | protein stability index
73 | EILGCPLPDPNNYYARRNEMTTTD [H15A] | 3.71
74 | EILGCPLPDPNNYYDRRNEMTTTD [H15D] | 4.42
75 | EILGCPLPDPNNYYCRRNEMTTTD [H15C] | 2.71
76 | EILGCPLPDPNIYYHRRNEMTTTD [N12I] | 3.05
77 | EILGCPLPDPNVYYHRRNEMTTTD [N12V] | 3.17
78 | EILGCPLPDPNRYYHRRNEMTTTD [N12R] | 3.35
79 | EILGCPLPDPNCYYHRRNEMTTTD [N12C] | 3.44
80 | EILGCPLPDPNKYYHRRNEMTTTD [N12K] | 2.77
81 | EILGCPLPDPNQYYHRRNEMTTTD [N12Q] | 3.73
82 | EILGCPLPDPNFYYHRRNEMTTTD [N12F] | 2.5
83 | EILGCPLPDPNHYYHRRNEMTTTD [N12H] | 3.36
84 | EILGCPLPDPNYYYHRRNEMTTTD [N12Y] | 3.35
85 | EILGCPLPDPNPYYHRRNEMTTTD [N12P] | 3.45
86 | EILGCPLPDPNEYYHRRNEMTTTD [N12E] | 3.85
87 | EILGCPLPDPNAYYHRRNEMTTTD [N12A] | 3.67
88 | EILGCPLPDPNWYYHRRNEMTTTD [N12W] | 2.79
89 | EILGCPLPDPNMYYHRRNEMTTTD [N12M] | 3.41
90 | EILGCPLPDPNSYYHRRNEMTTTD [N12S] | 3.09
91 | EILGCPLPDPNTYYHRRNEMTTTD [N12T] | 3.17
92 | EILGCPLPDPNDYYHRRNEMTTTD [N12D] | 4.07
93 | EILGCPLPDPNLYYHRRNEMTTTD [N12L] | 3.42
94 | EILGCPLPDPNGYYHRRNEMTTTD [N12G] | 2.85
